In data set [1] the target is T1, holo-SDHA-SDHAF2 complex (preformed from purified proteins) (human, UniProt P31040 43-664; Q9NX18 37-166, covalently attached FAD (residue not stated)).
T1 construct: human SDHAF2, mature, residues 37-166; also called holo-SDHA-AF2; SDHA-AF2 complex; source: E. coli BL21(DE3) proteins, purified; not shown: His6, N-terminal, kept; His6, N-terminal, cleaved
As to the kind of experiment: pull-down; preformed holo-SDHA-SDHAF2 (2 µM, His6 on SDHA) incubated with SDHAF4 or its variants, with or without 5 mM fumarate, 30 min 25 °C, then held on Ni-NTA agarose; SDS-PAGE with Coomassie, western blot for the truncated variants. The settings on record: both partners purified. (In general: In western blotting, separated proteins are transferred to a membrane and probed.)

Data set [2] addresses T2, Human SDHA-AF2 complex (co-expressed, purified) (human, UniProt P31040 43-664; Q9NX18 37-166, covalently attached FAD (residue not stated)).
T2 construct: human SDHAF2, mature, residues 37-166; also called holo-SDHA-SDHAF2 complex; holo-SDHA-AF2; not shown: His6, N-terminal, kept
Nature of the data set: crystal structure; SDHA-AF2-AF4: holo-SDHA-SDHAF2 with His6-SDHAF4, 5 h at 4 °C, SEC; crystals in 0.2 M ammonium citrate tribasic pH 8.0, 20% PEG 3,350, 1 mM DTT, 25 °C. The settings on record: both partners purified.

Data set [3] has as its target T3, holo-SDHA with covalently attached FAD (human, UniProt P31040 43-664, covalently attached FAD (residue not stated)).
T3 construct: also called SDHA with covalent FAD; His6-SDHA; source: E. coli BL21(DE3), purified; covalent FAD formed in vitro (apo-SDHA with SDHAF2, FAD and fumarate) or by co-expression with SDHAF2; not shown: His6, N-terminal, kept
Described as above. The following applies: both partners purified.

Data set [4] concerns the molecule itself. Nature of the data set: native gel or EMSA; purified His6-SDHAF4^30-108, dilution series from 5 mg/ml, on 10% native and 10% SDS gels. (In EMSA bound probe runs differently from free probe, usually more slowly.)
Data set [5] deals with T3, holo-SDHA with covalently attached FAD. Nature of the data set: pull-down; preformed holo-SDHA-SDHAF2 (2 µM, His6 on SDHA) incubated with SDHAF4 or its variants, with or without 5 mM fumarate, 30 min 25 °C, then held on Ni-NTA agarose; SDS-PAGE with Coomassie, western blot for the truncated variants. The following applies: both partners purified.
A further data set deals with T4, His6-apo-SDHA (human, UniProt P31040 43-664).
T4 construct: the same molecule with 75 µM FAD added is the form with non-covalent FAD; also called His-SDHA; not shown: His6, N-terminal, kept
T4 sequence (P31040 43-664): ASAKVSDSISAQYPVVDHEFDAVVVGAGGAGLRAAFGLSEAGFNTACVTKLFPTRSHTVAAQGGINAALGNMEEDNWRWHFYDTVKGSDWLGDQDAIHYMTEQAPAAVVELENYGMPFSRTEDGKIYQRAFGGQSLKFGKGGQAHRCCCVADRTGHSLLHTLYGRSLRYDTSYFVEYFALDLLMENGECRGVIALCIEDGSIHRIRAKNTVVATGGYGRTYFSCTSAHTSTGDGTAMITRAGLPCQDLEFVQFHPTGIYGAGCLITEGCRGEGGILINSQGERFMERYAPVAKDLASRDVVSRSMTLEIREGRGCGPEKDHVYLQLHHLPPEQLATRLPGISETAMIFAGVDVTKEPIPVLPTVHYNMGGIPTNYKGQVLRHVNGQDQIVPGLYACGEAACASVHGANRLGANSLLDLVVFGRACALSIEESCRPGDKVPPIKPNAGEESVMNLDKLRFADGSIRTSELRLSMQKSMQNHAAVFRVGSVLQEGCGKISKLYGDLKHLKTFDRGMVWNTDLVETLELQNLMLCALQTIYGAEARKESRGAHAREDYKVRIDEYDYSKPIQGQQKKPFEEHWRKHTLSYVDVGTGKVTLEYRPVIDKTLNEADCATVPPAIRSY
As to the kind of experiment: pull-down; Ni-NTA pull-down, pairwise; His6-apo-SDHA (2.6 µM) with SDHAF2 (6.4 µM) or FLAG-SDHAF4 (8 µM), no FAD; 40 mM HEPES pH 7.5, 0.5 mM DTT, 30 min 25 °C; SDS-PAGE, Coomassie. The following applies: both partners purified.

T1 sequence (P31040 43-664, one chain of several): as the sequence (P31040 43-664) above
T3 sequence (P31040 43-664): as above
T2 sequence (P31040 43-664, one chain of several): as the sequence (P31040 43-664) above

B1: SDHAF4^77-108 (domain or fragment)
chain: not shown
notes: human SDHAF4, residues 77-108; also called truncated FLAG-SDHAF4 variant
As to B1, the “percent of SDHAF2 displaced from the SDHA-AF2 complex” value (“percent of SDHAF2 displaced” below) in data set [1] was roughly 50%.

B2: SDHAF4^D107A (natural protein, human, UniProt Q5VUM1 30-108, looked up)
chain: LRKTSSSQGGKSELVKQSLKKPKLPEGRFDAPEDSHLEKEPLEKFPDDVNPVTKEKGGPRGPEPTRYGDWERKGRCIAF
notes: human SDHAF4, residues 30-108, made by modification of the pQT-SDHAF4 parent vector; The pQT vector adds a TEV-cleavable His tag; source: E. coli BL21(DE3), purified
As for B2, the binding result in data set [1] is listed as “binds”.

B3: His6-SDHAF4^30-108 (natural protein, human, UniProt Q5VUM1 30-108, looked up)
chain: LRKTSSSQGGKSELVKQSLKKPKLPEGRFDAPEDSHLEKEPLEKFPDDVNPVTKEKGGPRGPEPTRYGDWERKGRCIDF
notes: human SDHAF4, residues 30-108, in the pQT vector (pQT-SDHAF4); also called His-SDHAF4; purified SDHAF4; source: E. coli BL21(DE3), purified (Ni-NTA, SEC); not shown: His6, N-terminal, kept
On to B3, for which the binding result in data set [2], in data set [3] and in data set [4] was “binds” each time.

B4: SDHAF4^D107T (natural protein)
chain: not shown
notes: as for B2
On to B4, for which the binding result in data set [1] is “binds”.

B5: SDHAF4^F108A (natural protein, human, UniProt Q5VUM1 30-108, looked up)
chain: LRKTSSSQGGKSELVKQSLKKPKLPEGRFDAPEDSHLEKEPLEKFPDDVNPVTKEKGGPRGPEPTRYGDWERKGRCIDA
notes: as for B2
As to B5, the binding result in data set [1] is given as “binds”.

B6: SDHAF4^D107N (natural protein, human, UniProt Q5VUM1 30-108, looked up)
chain: LRKTSSSQGGKSELVKQSLKKPKLPEGRFDAPEDSHLEKEPLEKFPDDVNPVTKEKGGPRGPEPTRYGDWERKGRCINF
notes: as for B2
As for B6, the binding result in data set [1] is given as “binds”.

B7: SDHAF4^ΔF108 (natural protein, human, UniProt Q5VUM1 30-108, looked up)
chain: LRKTSSSQGGKSELVKQSLKKPKLPEGRFDAPEDSHLEKEPLEKFPDDVNPVTKEKGGPRGPEPTRYGDWERKGRCID
notes: human SDHAF4, residues 30-108 without the C-terminal F108, made by modification of the pQT-SDHAF4 parent vector; The pQT vector adds a TEV-cleavable His tag; source: E. coli BL21(DE3), purified
As to B7, the binding result in data set [1] is “binds”.

B8: SDHAF4^67-108 (domain or fragment)
chain: not shown
notes: human SDHAF4, residues 67-108; also called truncated FLAG-SDHAF4 variant
Regarding B8, the “percent of SDHAF2 displaced” value in data set [1] is roughly 50%.

B9: SDHAF2 (residues 37-166, His6 tag removed with TEV protease) (natural protein, human, UniProt Q9NX18 37-166, looked up)
chain: GDSPTDSQKDMIEIPLPPWQERTDESIETKRARLLYESRKRGMLENCILLSLFAKEHLQHMTEKQLNLYDRLINEPSNDWDIYYWATEAKPAPEIFENEVMALLRDFAKNKNKEQRLRAPDLEYLFEKPR
notes: human SDHAF2, mature, residues 37-166; source: E. coli BL21(DE3), purified; His6 tag removed with TEV protease; not shown: His6, N-terminal, cleaved
On to B9, for which the binding result (in data set [5]; in the data set with His6-apo-SDHA) was “binds” in each case.

B10: FLAG-SDHAF4 (mature, residues 20-108) (natural protein, human, UniProt Q5VUM1 20-108, looked up)
chain: AARSPLLCHSLRKTSSSQGGKSELVKQSLKKPKLPEGRFDAPEDSHLEKEPLEKFPDDVNPVTKEKGGPRGPEPTRYGDWERKGRCIDF
notes: human SDHAF4, mature protein, residues 20-108, codon-optimised synthetic gene in pST50Trc3-FLAG; also called full-length SDHAF4; wild-type SDHAF4; source: E. coli BL21(DE3), purified (DEAE-Sepharose, filtration)
Turning to B10, the “percent of SDHAF2 displaced” value in data set [1] is roughly 80%.

B11: SDHAF4^56-108 (domain or fragment)
chain: not shown
notes: human SDHAF4, residues 56-108; also called truncated FLAG-SDHAF4 variant
As for B11, the “percent of SDHAF2 displaced” value in data set [1] was roughly 50%.

The record behind these values is article PMC10784507, “Disordered-to-ordered transitions in assembly factors allow the complex II catalytic subunit to switch binding partners” (Nature Communications, 2024).
